Literature values in patent US20200069786A1, “COMPOSITION AND PROCESS FOR PREPARING VACCINE” (TREOS BIO ZRT., priority 2018, published 2020).

B1: ODF1 (protein, UniProt Q14990 1-250, looked up)
Outer dense fiber protein 1: MAALSCLLDSVRRDIKKVDRELRQLRCIDEFSTRCLCDLYMHPYCCCDLHPYPYCLCYSKRSRSCGLCDLYPCCLCDYKLYCLRPSLRSLERKAIRAIEDEKRELAKLRRTTNRILASSCCSSNILGSVNVCGFEPDQVKVRVKDGKVCVSAERENRYDCLGSKKYSYMNICKEFSLPPCVDEKDVTYSYGLGSCVKIESPCYPCTSPCSPCSPCSPCNPCSPCNPCSPYDPCNPCYPCGSRFSCRKMIL
B2: ODF2 (protein, UniProt Q5BJF6 1-829, looked up)
Outer dense fiber protein 2: MSASSSGGSPRFPSCGKNGVTSLTQKKVLRAPCGAPSVTVTKSHKRGMKGDTVNVRRSVRVKTKVPWMPPGKSSARPVGCKWENPPHCLEITPPSSEKLVSVMRLSDLSTEDDDSGHCKMNRYDKKIDSLMNAVGCLKSEVKMQKGERQMAKRFLEERKEELEEVAHELAETEHENTVLRHNIERMKEEKDFTILQKKHLQQEKECLMSKLVEAEMDGAAAAKQVMALKDTIGKLKTEKQMTCTDINTLTRQKELLLQKLSTFEETNRTLRDLLREQHCKEDSERLMEQQGALLKRLAEADSEKARLLLLLQDKDKEVEELLQEIQCEKAQAKTASELSKSMESMRGHLQAQLRSKEAENSRLCMQIKNLERSGNQHKAEVEAIMEQLKELKQKGDRDKESLKKAIRAQKERAEKSEEYAEQLHVQLADKDLYVAEALSTLESWRSRYNQVVKEKGDLELEIIVLNDRVTDLVNQQQTLEEKMREDRDSLVERLHRQTAEYSAFKLENERLKASFAPMEDKLNQAHLEVQQLKASVKNYEGMIDNYKSQVMKTRLEADEVAAQLERCDKENKILKDEMNKEIEAARRQFQSQLADLQQLPDILKITEAKLAECQDQLQGYERKNIDLTAIISDLRSRIEHQGDKLEMAREKHQASQKENKQLSLKVDELERKLEATSAQNIEFLQVIAKREEAIHQSQLRLEEKTRECGTLARQLESAIEDARRQVEQTKEHALSKERAAQNKILDLETQLSRTKTELSQLRRSRDDADRRYQSRLQDLKDRLEQSESTNRSMQNYVQFLKSSYANVFGDGPYSTFLTSSPIRSRSPPA
B3: ODF3 (protein, UniProt Q96PU9 1-254, looked up)
Ciliary microtubule …: MTEEVWMGTWRPHRPRGPIMALYSSPGPKYLIPPTTGFMKHTPTKLRAPAYSFRGAPMLLAENCSPGPRYNVNPKILRTGKDLGPAYSILGRYQTKTMLTPGPGDYFPEKSTKYVFDSAPSHSISARTKAFRVDSTPGPAAYMLPMVMGPNTVGKASQPSFSIKGRSKLGGFSDDLHKTPGPAAYRQTDVRVTKFKAPQYTMAARVEPPGDKTLKPGPGAHSPEKVTLTKPCAPVVTFGIKHSDYMTPLLVDVE
B4: PRSS55 (protein, UniProt Q6UWB4 19-352, looked up)
Serine protease 55: GPRTPLPEAGVAILGRARGAHRPQPPHPPSPVSECGDRSIFEGRTRYSRITGGMEAEVGEFPWQVSIQARSEPFCGGSILNKWWILTAAHCLYSEELFPEELSVVLGTNDLTSPSMEIKEVASIILHKDFKRANMDNDIALLLLASPIKLDDLKVPICLPTQPGPATWRECWVAGWGQTNAADKNSVKTDLMKAPMVIMDWEECSKMFPKLTKNMLCAGYKNESYDACKGDSGGPLVCTPEPGEKWYQVGIISWGKSCGEKNTPGIYTSLVNYNLWIEKVTQLEGRPFNAEKRRTSVKQKPMGSPVSGVPEPGSPRSWLLLCPLSHVLFRAILY

System: TSA
Settings: for Expression Rate (ER) %: TSA expression rate in PROSTATE cancer

| Molecule | Expression Rate (ER) % [%] | TSA Expression Rate (ER) (BREAST) [%] |
| --- | --- | --- |
| B1 | 10 | – |
| B2 | 10 | – |
| B3 | 0 | 0 |
| B4 | 1 | – |
